Experimental findings from paper doi:10.1101/2021.10.11.463953 are described below.

In the assay the target is Acinetobacter sp. Ver3 iron superoxide dismutase (^AV3SodB) (Acinetobacter sp. Ver3). Description: crystal structure.

One may read the stoichiometry N as a count of units in the complex or per binding partner. The substance “Acinetobacter sp. Ver3 iron superoxide dismutase (^AV3SodB) (enzyme)” showed a stoichiometry N of 2.
